For 2 substances, fold enrichment over non-ligand DNA results are on record in PMC9811540.

The target of this experiment is UltraID-δ opioid receptor fusion protein (UniProt P41143). Description: proximity labelling; test selection on live Expi293F cells expressing UltraID-DOR; 0.1 nM DTK-DNA, 0.1 nM Met-Enk-RF-DNA, 100 nM non-ligand DNA, biotin 2 μM, ATP 50 μM, 30 minutes; lysis with 1% SDS, streptavidin beads, qPCR. For orientation: Quantitative PCR measures a nucleic acid by following its amplification.

Dmt-Tic-Lys (DTK), DNA-linked (peptide) displayed a fold enrichment over non-ligand DNA of 280 fold.
In the case of Met-Enk-RF, DNA-linked (peptide) it was 40 fold.
